Assay results: US9931401B2, “Combination comprising anti-fibroblast growth factor receptor 2 (FGFR2) antibody and a tyrosine kinase inhibitor” (Daiichi Sankyo Company, Limited, priority 2013, dated 2018)
Substitutions are numbered along the chain they refer to. “Also recorded” adds a separate entry of the source. Values belong to the molecule of their own block, whether it stands above or below them.

What was measured:
human FGFR2 IIIc = target: T1, human FGFR2 IIIc (Homo sapiens, UniProt P21802); assay: Elk1 luciferase reporter gene assay, FGFR2 IIIc-expressing 293α cells, ligand FGF9; format: cell-based; conditions: antibody preincubated 1 hour; FGF9 10 ng/ml, 6 hours
T1 construct: a human FGFR2 IIIc variant protein (isoform 1: NP_000132); expressed in transfected cells; host or cells: 293α cells (HEK293 stably transfected with integrin αv and β3)
Experimental: The Elk1 luciferase reporter gene assay was carried out using each hybridoma culture supernatant selected in Example 1)-5. A cell line 293α, which was HEK293 cells stably transfected with integrin αv and integrin β3 expression vectors, was transiently cotransfected with pcDNA-DEST40-FGFR2 IIIb or pcDNA-DEST40, pFA2-Elk1 (manufactured by Stratagene Corp.), pFR-Luc2CP, and pGL4.74[hRluc/TK] (manufactured by Promega Corp.) according to transfection procedures using Lipofectamine 2000 (manufactured by Invitrogen Corp.), inoculated to a white 96-well cell culture plate (manufactured by Corning Inc.), and cultured overnight at 37° C. under 5% CO2 conditions. On the next day, the culture supernatant was removed, and the hybridoma culture supernatant diluted 5-fold with DMEM containing 5% FBS was added at a concentration of 50 μl/well to the plate. […] The firefly/Renilla ratio was calculated to normalize data on each well.
In order to evaluate the signal-neutralizing effects of the obtained antibodies by the Elk1 luciferase reporter gene assay, 293α cells were cotransfected with pcDNA-DEST40-FGFR2 IIIb or pcDNA-DEST40-FGFR2 IIIc constructed in Example 1)-3-1, pFA2-Elk1 (manufactured by Stratagene Corp.), pFR-Luc2CP, and pGL4.74[hRluc/TK] […] The firefly/Renilla ratio was calculated to normalize data on each well. […]

[1] = system: FGFR2, FRS2, and ERK phosphorylation in stomach cancer cell line SNU-16; assay: FGFR2 signal inhibitory effect on SNU-16 by Western blotting; format: cell-based, human; conditions: FGF7 10 ng/ml, 10 minutes
Experimental: The FGFR2 signal inhibitory effect of the obtained antibody was tested using a stomach cancer cell line SNU-16 endogenously expressing FGFR2. SNU-16 cells (3×10^6) suspended in an RPMI medium containing 0.1% bovine serum albumin were seeded onto a 12-well plate and incubated overnight. The rat FR2-10 antibody was added thereto, and the cells were incubated at 37° C. for 1 hour. Then, 10 ng/ml FGF7 (manufactured by R&D systems, Inc.) was added thereto, and the cells were further incubated for 10 minutes. Subsequently, the cells were lysed with an RIPA buffer (1% NP-40, 0.5% sodium deoxycholate, and 0.1% SDS in PBS) containing Complete Mini (manufactured by Roche Applied Science) and a phosphatase inhibitor (manufactured by Nacalai Tesque Inc.). The lysates were centrifuged to obtain the cell lysis solution, and the protein concentration was determined using BCA protein assay (manufactured by Pierce Biotechnology, Inc.). The lysates were resuspended in a DTT-containing buffer and denatured at 99° C. for 5 minutes. The protein (20 μg/lane) was separated by SDS-PAGE on a 5 to 20% gel. The protein was blotted onto a PVDF membrane (manufactured by Bio-Rad Laboratories, Inc.). The membrane was blocked with TBS-T (2 mM Tris, 50 mM NaCl, and 0.1% Tween-20 (pH 7.4)) containing 5% skimmed milk (MEGMILK SNOW BRAND Co., Ltd.) at room temperature for 1 hour. […]

T1 sequence (P21802 22-821): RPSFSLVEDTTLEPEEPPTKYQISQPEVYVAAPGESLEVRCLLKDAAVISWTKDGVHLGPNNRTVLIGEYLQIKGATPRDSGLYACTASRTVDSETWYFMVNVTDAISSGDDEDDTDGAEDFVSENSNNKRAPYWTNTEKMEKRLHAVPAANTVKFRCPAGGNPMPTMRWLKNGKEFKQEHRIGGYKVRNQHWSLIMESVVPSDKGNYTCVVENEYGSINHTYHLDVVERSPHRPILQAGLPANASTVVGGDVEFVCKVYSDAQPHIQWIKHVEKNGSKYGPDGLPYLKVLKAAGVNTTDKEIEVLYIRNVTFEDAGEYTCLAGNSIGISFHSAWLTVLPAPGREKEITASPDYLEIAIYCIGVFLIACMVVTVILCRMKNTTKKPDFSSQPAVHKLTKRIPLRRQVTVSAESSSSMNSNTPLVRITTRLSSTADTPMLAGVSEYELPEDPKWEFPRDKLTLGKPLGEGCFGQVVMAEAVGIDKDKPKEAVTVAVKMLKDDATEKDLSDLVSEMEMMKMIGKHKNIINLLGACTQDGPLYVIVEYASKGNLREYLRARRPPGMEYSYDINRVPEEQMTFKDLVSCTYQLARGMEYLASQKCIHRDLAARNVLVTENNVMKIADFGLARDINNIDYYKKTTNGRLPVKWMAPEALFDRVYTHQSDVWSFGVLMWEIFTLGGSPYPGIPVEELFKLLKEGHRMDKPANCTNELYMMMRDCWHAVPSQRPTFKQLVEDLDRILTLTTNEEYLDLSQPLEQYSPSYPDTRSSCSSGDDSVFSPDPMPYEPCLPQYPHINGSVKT

ligand FGF9 dependent reporter activation in the FGFR2 IIIc-expressing cells (human FGFR2 IIIc): inhibited
B1: FR2-13: anti-human FGFR2 rat monoclonal antibody obtained by the method described in Example 1; VH SEQ ID NO: 14, VL SEQ ID NO: 24 (antibody, listed as Rattus norvegicus, V domains shown)
VH: QVKLLQSGAELVKPGASVKLSCKTSGFTFSTSYMSWLKQVPGPSIEWIGWIYAGDGGTKYNQKFKGKATLTVDKSSSTAYMDLSSLTSEDAAVYFCATDGYGDWFAYWGQGTLVTVSS
VL: DIQMTQSPASLSASLGETVTIECRASEDIYSNLAWYQQKPGNSPQLLIYDANILADGVPSRFSGSGSGTQYSLKINSLQSEDVASYFCQQYNNYPPFTFGVGTKLELKRA

ligand FGF9 dependent reporter activation in the FGFR2 IIIc-expressing cells (human FGFR2 IIIc): inhibited
B2: FR2-14: anti-human FGFR2 rat monoclonal antibody obtained by the method described in Example 1; VH SEQ ID NO: 16, VL SEQ ID NO: 26 (antibody, listed as Rattus norvegicus, V domains shown)
VH: B1 VH with I45T, S75F, A106T
VL: B1 VL with V101A

B3: FR2-10: anti-human FGFR2 rat monoclonal antibody obtained by the method described in Example 1; VH SEQ ID NO: 12, VL SEQ ID NO: 21 (antibody, listed as Rattus norvegicus, V domains shown)
VH: EVQLVESGGGLVQPGRSLKLSCVASGFRFNDFWMTWIRQAPGKGLEWVASITYTGDNTYYAGSVKGRITISRDNAKSTLYLQMNSLRSEDTATYYCTRDDYGGYSPYYMDAWGQGTSVTVSS
VL: DIQMTQSPSSLSAFLGDRVTITCRASQDIGNYLRWFQQKPGKSPRLMIYGATNLANGVPSRFSGSRSGSDYSLTINNLESEDMAIYYCLKHNEYPFTFGSGTKLEIKRA
phosphorylation of FGFR2, FRS2, and ERK induced by FGF7 [1]: inhibited FGFR2, FRS2, and ERK phosphorylation; also recorded: inhibited the increase in the phosphorylation of these molecules in a concentration dependent manner
